Data: US20150175687A1

What was measured:
[1] = biological target: recombinant mature myostatin (human) (UniProt O14793)
[2] = biological target: recombinant mature myostatin (human) (UniProt O14793); assay: BIAcore, myostatin immobilized

Sequence of recombinant mature myostatin (human) (O14793 267-375): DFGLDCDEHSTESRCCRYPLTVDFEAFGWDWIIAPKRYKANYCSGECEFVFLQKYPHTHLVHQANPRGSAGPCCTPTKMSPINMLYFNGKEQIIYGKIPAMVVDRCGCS

IC50 (nM), myostatin-induced luciferase, C2C12 pMARE-luc [1]: 83 nM | Kd [2]: 7 nM
B1: recombinant human activin receptor IIB/Fc chimera (Fc fusion)
chain: SGRGEAETRECIYYNANWELERTNQSGLERCEGEQDKRLHCYASWRNSSGTIELVKKGCWLDDFNCYDRQECVATEENPQVYFCCCEGNFCNERFTHLPEAGGPEVTYEPPPTAPT
